Laboratory results: the DeepSol protein solubility set

experiment: soluble on expression in E. coli; label from the status in PepcDB or PDB records

| Sequence | soluble on expression in E. coli |
| --- | --- |
| MAHHHHHHMHTKHTRRPVDTHKRNTMPLIRPGMPKPPQGFDVVLAKLEEYDEQMKLATQEESKGVVGVTTRPRHSGGFGARKRMRDDDANAEDGTVAPPAEASSTVAAAESEAGTSTAGDDNAEAKEEPPIPPLWRMAAINRARTRYVFLAYYKQHIISKEVYDYCVDTRLIDGGLARRWRLPGYERLCCTACGVPGAASLAASITSKYALRDRQERRLTTSASQQRIHDTATCLCRVPAAQRRSKHFVACAACGCHGCCSADAMKGPKEGDGGEKTDKTREEPSVNAPGRGEA | not soluble |
| MGSDKIHHHHHHMEVLRTENLKSYYILDIFGKKRVVKAVDDVNISIMENEIYGIAGESGCGKSTLLRALFAAIEPPQRIVGGKVLYRENGKEVDVYSLSDEERRRLRWSFISYVPQGSMSVLNPVVKIKETFKDFIESHTTGKTKEEAYEMAKEHIKELGLPIEILNAYPHQLSGGMRQRVTIALATVLSPKVIIADEPTTALDVVTQRGVVQLLKEIQSSRQNTIILVTHDMGVHANVTDRIAIMYAGKIIEEGKTEEIFENPMHPYTKYLIYSLPKFGDKGRRESAPGSPPSLADLPPGCSFHPRCPHAFDRCKKEVPPLKEYLPGHRVACWLVEEGKNAAS | not soluble |
| NFLLTQPHSVSESPGKTVTISCTRSSGSIANNYVHWYQQRPGSSPTTVIFEDDHRPSGVPDRFSGSVDTSSNSASLTISGLKTEDEADYYCQSYDHNNQVFGGGTKLTVLG | soluble |
| MGHHHHHHSHMAPGGLFLPYHSLPQPDFLASCPTRHLKLCQCPGILAENPHQFSPTFPPGKGSCQHGALPGQVSLKEAAHTEMSLSGQDLFPSPAHPPLQPFWLPFSLCLSTPFLVADNELRLPKGQICPLHVFVLANRVVLKLCANSVWEHSKGIT | not soluble |
| MGSDKIHHHHHHMSKYESEVVVDGFHYLEGPRWYKDALWFVDFYTKGVYRVNDESVAEKIVHVEQQPSGLGWLPDGRMLIVSMKDRKVLRLEDNGELVVHADIWDHCEGHANDMVVAPNGNAYVGNFGFDLMGGADHKQTGLVLVKPDGNSQIVAEGLAFPNGMVISADEKTLIVNELFGNKISQFDINADGTLGEKRDFANFGDLGDEPNLGARIENANILPDGLALDSEGAVWIADTLNQRAVRISEGGEILDIVNTAPDGIFAVALGGQNGKTLFMCAAPDWDEASRTAETKGRMLSTQVKVGHAGTP | not soluble |
| MELLCCEGTRHAPRAGPDPRLLGDQRVLQSLLRLEERYVPRASYFQCVQREIKPHMRKMLAYWMLEVCEEQRCEEEVFPLAMNYLDRYLSCVPTRKAQLQLLGAVCMLLASKLRETTPLTIEKLCIYTDHAVSPRQLRDWEVLVLGKLKWDLAAVIAHDFLAFILHRLSLPRDRQALVKKHAQTFLALCATDYTFAMYPPSMIATGSIGAAVQGLGACSMSGDELTELLAGITGTEVDCLRACQEQIEAALRESLREASQTSSSPAPKAPRGSSSQGPSQTSTPTDVTAIHLLEHHHHHH | not soluble |
| LTQPLDHRHPEKGSFRQRVIVGHVGYDRPTVIVTEGYGAGYALRPTYREELSELFDANMIFVEHRYFLESTPEPCDWQYLTAENSAEDLHAVTTAFKTLYPGKWISTGISKGGQTSLLYRVFFPDDVDVSVPYVAPLCYAREDGRHEPFLRRVGTEADRKKIEDFQLEVLKRKARLLPRFEKMCTEKNYTFRAPLEEIYDFCVLEYSFSIWQWGTDIRSIPETSASDDTLLDHLLAISGPSYFIVDSPTLSFFVQAARELGYYGYDIAPFKPYLSIKTSKDYLRRLMLPEDMRKMKFDKTLSNKIVRFLKKNDPKMIFIYGQNDPWTAAGVTWLKNKKNIHVFVEPGGSHLARIGTMSEDQKQKVMSLLRGWLEE | not soluble |
| MGSDKIHHHHHHMAIYLEMPKLIHEFPFRSLSNEGEVLTTPHWHKEIEILLITEGVVNLFINDKPMQLKKGEIVIIKGGDIHYILPSPGSERLVFQFDISFFNDLILLNEEKESLINLFSSIKKCSRDWSAKIRKSVFDILIDIYNEDLYKIEGYSYAIKGKMYNLIPILYRQIPREIEENTVEYEINSKEILERLNNIFKYVEKNYKQPIKLEDVSYEVGFSVYYFTKFFKKNTGKTFITFLNEYRLEKAKWILLNNNISIVDLVEEVGFGSTKTFYRVFKEKIGVSPLEFKKRYNSLEKKGSVSK | not soluble |
| MGHHHHHHSHMKQKLLVTLLGLSALGASPVFAANTNVDLAEDAYIYGYSIDEAYKFFYHTAVENNYPLNRFQNIRALADDSYTAHPTINNDTLHLMGWLDVAAEPVIVSVPDMDEGRYWILHTMDMGHYTNAAFSSRTRGTKGGQFMFAAQDWQGEVPASVDEVVRVDSNLVKLMGRIMAVNDEDAKVALNYMDQWNIRTLSEYLGKNGPKPVQRTYPDPKKSTWLERVNFVLCDGSMGNADKQWLDKYQSIGVEPCKTDFTPEQLKLAKVGEKKGMEHLVELAPKMTDARTLLGTRDTLGDAPRDIFAEGTYLGQWGLPPIEASYRKSDFDSIGQKLDGSKHDYVMRFKAPNVSEFWSVTIYGNDNRLMAKNDLNRHSRGDRTMKADKDGYYTIYMSANEKGRADDPNFLPVPEKPFYAIMRFYGADDAIQSGEYQMPEIKVVK | soluble |
| MGSDKIHHHHHHMEFSLERDEARLVEIASIQETYGTFLIEHLDEKTAIISGSWDPLRRCAFVNYVGLIVGEAEDLSAFQEGLPAGKFYIRYRDIDGDKPMSEAAIGDMLKARGRVSFRDPDYVVRVVHHGIFYVTKVVYERDKKQFIERKAPRRPFFSPVSMDPKYARFLVNTAHVRENQLLIDPFCGTGGILIEAALMGIRVIGNDVALSMAAGARTNLKHFHVEDFHIYNMDVSDLPVRDVDGIATDMPYGRNSYASEDLEVLYERSFRKFHEMLKPHGYASFVVSDPDLAELARPFFNIVHDVPVYQHRSLTRHFITAMRKD | not soluble |
| MSNFLDLQKQRRSIYALGKTVDLSKAELVALIQNAIKQAPSAFNSQTSRALVLFGQDSQDFWNKIAYSELEKVTPAEAFAGTKAKLESFAAGVGTILLFEDQAVVRNLEENFPLYAENFQPWSEQAHGIALYAIWLALAEQNIGMSVQHYNPLVDAQVAEKYDLPTNWKMRAQIPFGSIEAPAGEKEFMADQERFKVFGDLEHHHHHH | soluble |
| MSLRGNFFSFVRISGQSMSPNLVNNQIVLLEKKANVSRGTVIVSKTNNLQKQNTGVQDIALRVVALPGDKVNYKKGQLYVNGKKVNQSYISSQVKTETGMSIDTGWSINSLSLSKNWPKSQRNIKKVQKNSYFVLADNRIDPVDSRQYGLIKKRQIEGVVKVFFLGNKNKDEGHHHHHH | not soluble |
| MVKVYGSTVDNESRCTHYQTPLDIIAIKFKCCNKYYPCYKCHNEHESHKIQRWQANEFHEKAILCGVCNHEMTINDYMMIEACPKCDAHFNNRCKYHYHLYFEILEHHHHHH | soluble |
| MTLDVGPEDELPDWAAAKEFYQKYDPKDVIGRGVSSVVRRCVHRATGHEFAVKIMEVTAERLSPEQLEEVREATRRETHILRQVAGHPHIITLIDSYESSSFMFLVFDLMRKGELFDYLTEKVALSEKETRSIMRSLLEAVSFLHANNIVHRDLKPENILLDDNMQIRLSDFGFSCHLEPGEKLRELCGTPGYLAPEILKCSMDETHPGYGKEVDLWACGVILFTLLAGSPPFWHRRQILMLRMIMEGQYQFSSPEWDDRSSTVKDLISRLLQVDPEARLTAEQALQHPFFERCEGSQPWNLTPRQRFRVAVWTVLAAGRVALSTHRVRPLTKNALLRDPYALRSVRHLIDNCAFRLYGHWVKKGEQQNRAALFQHRPPGPFPIMGPEEEGDSAAITEDEAVLVLG | soluble |
| MGSDKIHHHHHHMAGDIIVRNKFCDISKVRFRKWDEIDVIFWKFGKSNPERKSGGYYLNAYKDAYIQYNKERIIKYANQAGILPELLGGVAWIESGGMPEEYKFQVFEIKRFLKLKSSPENKTSFGSVAMQIQVAARTLGLNPDILTTRDQLELATCLMEDDFNLWIVAQHLRDMILYDYPSVAALYLTDEQYMMAGIRYNRGIQRKLSEFIRFIDAKPERGSAEFDYISYGVRLLQIRNHIRKLLELNT | not soluble |
| MGKNFDEAALLKSLEGVPDAEKVQKLIKKLAESEKQNAELKIKVLDYDKVVKVKDLTEKKLERNNQILLRTEEAKSKLEELCRGLQKANHQTREEACAKMKKLEVERGLAVEQLKVTLKDIEKTMAEGRSKSDSLAEDNKKLSEKFSEIGHQYEEKMKVIDQQIQKKEKYWEEYGKTKDLEIKLLTAKLESASIQVKKSGMEKDELAKIMLEETARVGGALKTEKALREQVQEYSAKYSELTSCLSKSNEAFDKFKDEISRVNKKCMQVEKEGLSYKKKSDEANKKVLVLTMTNQEYAEKIATSDKKIQMLENLCRALRKGEQEPVTTAETTEAN | not soluble |
| MAEAGIAHTALPLEAIPEKSAGKGEGLTLIIYMLELALHAIPENLKKTVYSKVELMAPRSDGVLLFYGLCGNVLGKIEEDFRALDCRVSILKEENGEIVDDCIGAVLGGRGHYLEALKSCRGAGTFFLTPMWAVNWREMIRTAGLSRNPDDIEMSKFVFDYAGYKRVARVNTGLAYEKDFDARVKEFSTLFEFEVTDLEGTLQLVENCYAKTKASMLEACPHSQTLEHHHHHH | not soluble |
| MGSDKIHHHHHHMTKVKLNFNKPSNVFNRNIFEILTNYDNFTEVHYGGGSSGKSHGVIQKVVLKALQDWKYPRRILWLRKVQSTIKDSLFEDVKDCLINFGIWDMCLWNKTDNKVELPNGAVFLFKGLDNPEKIKSIKGISDIVMEEASEFTLNDYTQLTLRLRERKHVNKQIFLMFNPVSKLNWVYKYFFEHGEPMENVMIRQSSYRDNKFLDEMTRQNLELLANRNPAYYKIYALGEFATLDKMVFPKYEKRLINKDELRHLPSYFGLDFGYVNDPSAFIHSKIDVKKKKLYIIEEYVKQGMLNDEIANVIKQLGYAKEEITADSAEQKSIAELRNLGLKRILPTKKGKGSVVQGLQFLMQFEIIVDERCFKTIEEFDNYTWQKDKDTGEYTNEPVDTYNHCIDSLRYSVERFYRPVRKRTNVSSKVDTIKSLGL | not soluble |
| MGSDKIHHHHHHAQFKIGGKKINVGKVVQAGSDAAKAITLSDSDIAAMSKEYMQWMDTHNPLTAADSEYGKRLEKLTGHIKEVDGLKVNFGVYEVVDVNAFACGDGSVRICAGLMDIMTDDEVMAVVGHEIGHVIHTDSKDAMKSAYLRSAVKNAAGAASSTVSKLTDSELGAMAEALAGAQYSQKQESEADDYGFEFSIKHNIDPYAMYNALNKLLELSAEAPKESKFQKMFSSHPDTAKRVARAKEKADNYTKNK | not soluble |
| MRIVAVTDIHGNMASTVALANILKKIEAELLLIAGDITHFSGGEIAKQILEPLLKLGVRVLAVMGNCDGKDVPKVLDELGINVHNARVEVKKVGVVGFGGSSVTPFSTIWEFSEEEIYSSLKRNYRSGDIVLTHAPPYRTRIDKTFSGIHAGSKGLRKFIEEEQPPICICGHIHEARGIDKIGETLVVNPGPLSRRYYAVIDSETWEVKLERLLEHHHHHH | soluble |
| MRVLFIGDVMAEPGLRAVGLHLPDIRDRYDLVIANGENAARGKGLDRRSYRLLREAGVDLVSLGNHAWDHKEVYALLESEPVVRPLNYPPGTPGKGFWRLEVGGESLLFVQVMGRIFMDPLDDPFRALDRLLEEEKADYVLVEVHAEATSEKMALAHYLDGRASAVLGTHTHVPTLDATRLPKGTLYQTDVGMTGTYHSIIGGEVETFLARFLTGRPQPFRAAQGKARFHATELVFEGGRPVAISPYVWEEP | soluble |
| MTKNPRNNKPKKILDSSYKSKTIWQNYIDALFETFPQLEISEVWAKWDGGNVTKDGGDAKLTANIRTGEHFLKAREAHIVDPNSDIYNTILYPKTGADLPCFGMDLMKFSDKKVIIVFDFQHPREKYLFSVDGLPEDDGKYRFFEMGNHFSKNIFVRYCKPDEVDQYLDTFKLYLTKYKEMIDNNKPVGEDTTVYSDFDTYMTELDPVRGYMKNKFGEGRSEAFVNDFLFSYK | soluble |
